According to PMC5895748:

Molecular target: human Toll-like receptor 5 (hTLR5) (human) (UniProt O60602)
UniProt O60602, sequence (O60602 21-858): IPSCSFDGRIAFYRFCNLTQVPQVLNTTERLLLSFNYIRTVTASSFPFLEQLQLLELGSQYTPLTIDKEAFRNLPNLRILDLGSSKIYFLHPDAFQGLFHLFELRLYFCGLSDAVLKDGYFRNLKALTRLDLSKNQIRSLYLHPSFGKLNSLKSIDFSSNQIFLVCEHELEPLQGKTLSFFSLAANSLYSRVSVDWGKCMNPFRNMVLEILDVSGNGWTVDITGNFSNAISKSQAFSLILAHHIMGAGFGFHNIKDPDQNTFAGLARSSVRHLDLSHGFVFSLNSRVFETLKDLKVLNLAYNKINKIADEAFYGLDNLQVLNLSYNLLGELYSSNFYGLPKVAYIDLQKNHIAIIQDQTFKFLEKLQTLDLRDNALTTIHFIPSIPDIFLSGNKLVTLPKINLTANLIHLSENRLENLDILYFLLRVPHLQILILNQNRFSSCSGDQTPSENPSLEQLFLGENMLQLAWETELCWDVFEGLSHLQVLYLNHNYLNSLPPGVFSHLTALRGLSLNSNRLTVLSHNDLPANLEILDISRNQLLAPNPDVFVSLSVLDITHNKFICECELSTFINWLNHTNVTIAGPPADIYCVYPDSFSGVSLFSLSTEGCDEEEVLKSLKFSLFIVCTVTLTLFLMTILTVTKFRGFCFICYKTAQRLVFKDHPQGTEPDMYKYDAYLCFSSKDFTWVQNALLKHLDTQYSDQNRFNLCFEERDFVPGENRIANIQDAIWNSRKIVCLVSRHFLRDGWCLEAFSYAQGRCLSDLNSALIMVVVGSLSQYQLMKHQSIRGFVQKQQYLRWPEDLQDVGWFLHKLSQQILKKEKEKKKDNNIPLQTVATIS

Substance | EC50 of TLR5 stimulation, HEK293blue-hTLR5 reporter cells (NF-kB-inducible SEAP) [pM] | EC50 of TLR5 stimulation, HEK293blue-hTLR5 reporter cells (SEAP); protein incubated at 37 °C for 24 hours before the assay [pM]
BcFlg^mF, T4 lysozyme inserted into BcFlg residues 178-180 | 1.4 | 2.4
Bacillus cereus flagellin BC1658 (BcFlg) (natural protein) | 1.7 | 1.9
Bacillus cereus flagellin BC1659 (natural protein) | 55.4 | 
BcFlg^cF, T4 lysozyme fused to the C-terminal end of BcFlg | 2.3 | 129
BcFlg^nF, T4 lysozyme fused to the N-terminal end of BcFlg | 44.2 | 
